{"source": "ChEMBL document CHEMBL1151754", "about": "“Structural and mechanistic studies of mofegiline inhibition of recombinant human monoamine oxidase B” (J Med Chem, 2008)", "substrate": "NCCCCc1ccccc1", "test": "Activity of human MAOB", "data": [{"protein": "Amine oxidase [flavin-containing] B (Homo sapiens) (protein) MSNKCDVVVVGGGISGMAAAKLLHDSGLNVVVLEARDRVGGRTYTLRNQKVKYVDLGGSYVGPTQNRILRLAKELGLETYKVNEVERLIHHVKGKSYPFRGPFPPVWNPITYLDHNNFWRTMDDMGREIPSDAPWKAPLAEEWDNMTMKELLDKLCWTESAKQLATLFVNLCVTAETHEVSALWFLWYVKQCGGTTRIISTTNGGQERKFVGGSGQVSERIMDLLGDRVKLERPVIYIDQTRENVLVETLNHEMYEAKYVISAIPPTLGMKIHFNPPLPMMRNQMITRVPLGSVIKCIVYYKEPFWRKKDYCGTMIIDGEEAPVAYTLDDTKPEGNYAAIMGFILAHKARKLARLTKEERLKKLCELYAKVLGSLEALEPVHYEEKNWCEEQYSGGCYTTYFPPGILTQYGRVLRQPVDRIYFAGTETATHWSGYMEGAVEAGERAAREILHAMGKIPEDEIWQSEPESVDVPAQPITTTFLERHLPSVPGLLRLIGLTTIFSATALGFLAHKRGLLVRV", "values": [{"measurement": "kcat", "value": 1.82, "unit": "s⁻¹"}]}]}
